For this assay, the target named is T1, Talin F2F3 (206-405, C336S) (UniProt Q9Y490 206-405, C336S).
T1 construct: Talin (head 1-433, rod 434-2541), F2 and F3 lobes of the FERM domain, residues 206-405; gene codon optimised and synthesised; the purification (beads before and after cleavage, elution as a 25 kDa protein) describes the cleaved protein; also called Talin206-405; Talin F2F3 head
The assay can be described thus: NMR titration; 1H-15N HSQC; 90 μM 15N-labelled FAT incubated with Talin at molar ratios of 1:0.5, 1:1 and 1:2; 25 °C. As to conditions: both partners purified.

Data on one molecule can be found in paper doi:10.1101/2022.04.06.487260, “The purified recombinant FAT domain of the Focal Adhesion Kinase does not bind directly to recombinant Talin or MBD2 in vitro” (bioRxiv, 2022).

Usually Kd stands for the constant that tells how readily two partners part at equilibrium.

T1 sequence (Q9Y490 206-405 C336S): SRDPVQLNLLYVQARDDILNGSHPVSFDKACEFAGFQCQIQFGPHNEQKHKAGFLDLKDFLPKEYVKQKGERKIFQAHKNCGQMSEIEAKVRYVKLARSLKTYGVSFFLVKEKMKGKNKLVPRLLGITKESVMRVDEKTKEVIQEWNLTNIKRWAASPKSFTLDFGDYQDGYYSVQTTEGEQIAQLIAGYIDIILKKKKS

B1: FAT domain of human FAK (892-1052) (domain or fragment, UniProt Q05397 892-1052, looked up)
chain: SSPADSYNEGVKLQPQEISPPPTANLDRSNDKVYENVTGLVKAVIEMSSKIQPAPPEEYVPMVKEVGLALRTLLATVDETIPLLPASTHREIEMAQKLLNSDLGELINKMKLAQQYVMTSLQQEYKKQMLTAAHALAVDAKNLLDVIDQARLKMLGQTRPH
notes: focal adhesion kinase (FAK), human, residues 892-1052: FAT domain with N-terminal residues preceding the four-helix bundle (922-1049); Expressed as GST fusion from pGex-6P2 and released from the beads with 3C protease; 15N-labelled (M9 medium with 15N-NH4Cl) for the NMR experiments; also called FAT892-1052; FAK FAT; source: E. coli BL21, purified (Glutathione Sepharose 4B, 3C protease, Superdex …)
For the molecule B1, the Kd was over 100 µM.
